Test results published in the nanobody polyreactivity screen of Harvey et al. (2022).

Assay: yeast display, Sf9 membrane polyspecificity reagent, FACS + sequencing; frameworks hold sequencing errors
Summary of the method: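 Nanobodies came from a synthetic yeast display library in Saccharomyces cerevisiae BJ5465, induced with galactose for 36–48 hours and stained for 1 hour at 4 °C with 10% biotinylated, detergent-solubilized Sf9 membrane reagent. Cells were enriched on streptavidin microbeads and then FACS-sorted, with low and high (top ~1%) gates set on anti-HA fluorescence for expression and streptavidin fluorescence for reagent binding. Each polyreactivity label reflects the gate a clone came from. Genes were amplified by colony PCR, sequenced by MiSeq 2 × 250 and filtered by CDR length.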

| Sequence | polyreactivity (PSR sort gate) |
| --- | --- |
| QVQLVESGGGLVQAGGSLRLSCAASGRTFVSYAMGWSRQAPGKERELVATITGSTGGTYYADSVKGRFTISRDNAKNTVYLQMNSLKPEDTAVYYCNKDYYYNPGNVASGYDYWGQGTQVTVSS | low polyreactivity |
| QVQLVESGGGLVQAGGSLRLSCAASGRTFVSYAMGWYRQAPGKERELVAGITWRGGSTYYADSVKGRFTISRDNAKNTVYLQMNSLTPEDTAVYYCAKRSVLYGNRIFDYWGQGTQVTVSS | high polyreactivity |
| QVQLVESGGGLVQAGGSLRLSCAASGRTFVSYDMGWYRQAPGKERELVAAITYSGGSSTYYADSVKGRFTISRDNAKNTVYLQMNSLKPEDTAVYYCATDYSLSFELDYWGQGTQVTVSS | low polyreactivity |
| QVQLVESGGGLVQAGGSLRLSCAASGRTFVTYAMGWYRQAPGKERELVAAISKRGSRTYYADSVKGRFTISRDNAKNTVYLQMNSLKPEDTAVYYCNAYPYRTSYDYWGQGTQVTVSS | high polyreactivity |
| QVQLVESGGGLVQAGGSLRLSCAASGRTFVVNAMGWSRQAPGKERELVAAITRRGGITYYADSVKGRFTISRDNAKNTVYLQMNSLKPEDTAVYYCAADRSYYPDTRTTYGYNYWGQGTQVTVSS | low polyreactivity |
| QVQLVESGGGLVQAGGSLRLSCAASGRTFVVNAMGWYRQAPGKERELVARITNSGLTNYADSVKGRFTISRDNAKNTVYLQMNSLKPEDTAVYYCNAAASYYVMLSWTRVYYWGQGTQVTVSS | high polyreactivity |
| QVQLVESGGGLVQAGGSLRLSCAASGRTFVVYAMGWYRQAPGKERELVAVIRVIGGSTNYADSVKRRFTISRDNAKNTVYLQMYSLKPEDTAVYYCAAAWSHSRWDTHDYWGQGTQVNVSS | low polyreactivity |
| QVQLVESGGGLVQAGGSLRLSCAASGRTFVVYAMGWYRQAPGKERELVAVISFTGDSTFYADSVKGRFTISRDNGKNTVYLQMNSLKPEDTAVYYCAADFRRVFSKYSYYLYFDFDYWGQGTLVTVSS | low polyreactivity |
| QVQLVESGGGLVQAGGSLRLSCAASGRTFVWNAMGWYRQAPGKERELVAAIDWSGGSTYYADSVKGRFTISRDNAKNTVYLQMNSLKPEDSAVYYCAKEYWYRALWYNYWGQGTQVTVSS | high polyreactivity |
| QVQLVESGGGLVQAGGSLRLSCAASGRTFVWYAMGWYRQAPGKERELVAAITLSGGSTYYADSVKGRFTISRDNAKNTVYLQMNSLKPEDTAVYYCAADGTYRPEDYDYWGQGTQVTVSS | low polyreactivity |
| QVQLVESGGGLVQAGGSLRLSCAASGRTFVYNAMGWSRQAPGKERELVAAITSGGSTYYADSVKGRFTISRDNAKNTVYLQMNSLKPEDTAVYYCAAYKRGYYWGQGTQVTVSS | high polyreactivity |
| QVQLVESGGGLVQAGGSLRLSCAASGRTFVYNAMGWYRQAAGKEWELVAAISSDGASTYYADSVKGRFTISRDNAKNTAYLQMNSLKPEDTAVYYCAADFSYYSYEHYYWGQGTQVTVSS | low polyreactivity |
| QVQLVESGGGLVQAGGSLRLSCAASGRTFVYNAMGWYRQAPGKERELVAAIDGGGDRTYYADSVKGRFTISRDNAKNTVYLQMNSLKPEDTAVYYCNARWQEPLKYDYWGQGTQVTVSS | low polyreactivity |
| QVQLVESGGGLVQAGGSLRLSCAASGRTFVYNAMGWYRQAPGKEREMVSGITNGGSTNYADSVKGRFTISRDNAKNTVYLQMNSLKPEDTAVYYCAADSRVYPYYFGDFGYWGQGTQVTVSS | low polyreactivity |
| QVQLVESGGGLVQAGGSLRLSCAASGRTFVYNAMGWYSQAPGKEREMVAAISFGGGNTYYADSVKGRFTISRDNAKNTVYLQMNSLIPEDTAVYYCAKAYIGYWGASWYYAYDYWGQGTQVTVSS | low polyreactivity |
| QVQLVESGGGLVQAGGSLRLSCAASGRTFVYYAKGWYIQAPGKERELVATISSSDSTNYAYSVKGRFTISRDNAKNTVYLQMNSLKPEDTAVYYCAGGPKGGGYYDPFDYWGQGTQVNVSS | low polyreactivity |
| QVQLVESGGGLVQAGGSLRLSCAASGRTFVYYAMGWYRQAPGKEREFVAAISRSGGRTSYADSVKGRFTISRDNAKNTVYLQMNSLKPEDTAVYYCAAEKRTQPSSREYYWGQGTQVTVSS | high polyreactivity |
| QVQLVESGGGLVQAGGSLRLSCAASGRTFVYYAMGWYRQAPGKERELVAAITSGGSTYYADSVKGRFTISRDNAKNTVYLQMNSLKPEDTAVYYCNKARVRGARFDYWGQGTQVTVSS | high polyreactivity |
| QVQLVESGGGLVQAGGSLRLSCAASGRTFVYYAMGWYRQAPGKERELVATISRRGGGTYYADSVKGRFTISRDNEKNTVYLQMNSLKPEDTAVYYCAAAFSYYPRYDYWGQGTQVTVSS | high polyreactivity |
| QVQLVESGGGLVQAGGSLRLSCAASGRTFWANTMGWYRQAPGKERELVAAISKRGGSTYYADSVKGRFTISRDNAKNTVYLQMISLKPEDTAVFYCNADKSGWYDYWGQGTQVTVSS | high polyreactivity |
| QVQLVESGGGLVQAGGSLRLSCAASGRTFWDYGMGWYRQAPGKDRELDATISGNGGDTYYADSVKGRFTISRDTAKNTVYLQMNSLKPEDTAVYYCAADYRFYRTDRHYDYWGQGTQVTVSS | low polyreactivity |
| QVQLVESGGGLVQAGGSLRLSCAASGRTFWFNDMGWYRQAPGKERELVAAISDTDGSTYYADSVKGLFTISRDNAKNTVYLQMNSLKPEDTAVYYCAAEAYYGYLYAYDYWGQGTQVTVSS | low polyreactivity |

| Sequence | polyreactivity (PSR sort gate) |
| --- | --- |
| QVQLVESGGGLVQAGGSLRLSCAASGRTFWFYDMGWYRQAPGKEREFVASITSSGGSTYYADSVKGRFTISRDIAKNTVYLQMNSLNPEDTAVYYCAASFYWTTRYSREYDYWGQGTQVTVSS | high polyreactivity |
| QVQLVESGGGLVQAGGSLRLSCAASGRTFWFYTMGWYRKAPGKEREFVAAISSGGSTNYADSVKGRFTISRDNAKYSVYLQMNSLKPEDTALYYCNARFQVGQSEYAVWYYPKYDYWGQGTQVTVSS | low polyreactivity |
| QVQLVESGGGLVQAGGSLRLSCAASGRTFWGYAMGWYRQAPGKERELVAAISSGGDTTYADSVKGRFTISRDNAKNTVYLQMNSLKPEDTAVYYCAADRWIPVYILGADGYDYWGQGTQVTVSS | low polyreactivity |
| QVQLVESGGGLVQAGGSLRLSCAASGRTFWHNAMGWYRQEPGKERELVAAITIRGGRTYYADSVKGRFTISRDNAKNTVYLQMNSLKPEDTAVYYCAAPPFVKMDYWGQGTQVTVSS | high polyreactivity |
| QVQLVESGGGLVQAGGSLRLSCAASGRTFWIYAMGWYRQAPGKERELVAAISRGGSTYADSVKGRFTISRDNAKNTVYLQMNSLKPEDTAVYYCAASTPQYQYYYWGQGTQVTVSS | high polyreactivity |
| QVQLVESGGGLVQAGGSLRLSCAASGRTFWIYTMGWYRQAPGKEREFVAAISIRGGSTYYADSVKGRFTISRDNAKNTVYLQMNSLKPEDTAVYYCAADGGYSLWADDDYWGQGTQVTVSS | low polyreactivity |
| QVQLVESGGGLVQAGGSLRLSCAASGRTFWNYAMGWYRQAPGKERELVAVIRFSDGSTYYADSVKGRFTISRDNAKNTVYLQMNSLKPEDTAVYYCAADDLLDYDYWGQGTQVTVSS | low polyreactivity |
| QVQLVESGGGLVQAGGSLRLSCAASGRTFWNYAMGWYRQATGKERELVAVIRFSDGSTYYADSVKGRFTISRDNAKNTVYLQMNSLKPEDTAVYYCAAKGPRRWGSGFDYWGQGTQVTVSS | low polyreactivity |
| QVQLVESGGGLVQAGGSLRLSCAASGRTFWPNAMGWYRQAPGKERELVAGIDWSGGSTYYADSVKGRFTISRDNAKNTVYLQMNSLKPEDTAVYYCNKVYYSYIPSTYGYWGQGTQVTVSS | high polyreactivity |
| QVQLVESGGGLVQAGGSLRLSCAASGRTFWRNAMGWYRQAPGKERELVADITTSGARTYYADSVKGRFTISRDNAKNTVYLQMNSLKPEDTAVYYCAKGPYTPWPKITGYNYWGQGTQVTVSS | high polyreactivity |
| QVQLVESGGGLVQAGGSLRLSCAASGRTFWRYTMGWYRQAPGKERELVAAISTNAGTTYYADSVKGRFTISRDNAKNTVYLQMNSLKPEDTAVYYCAARHPGNGYADPTNYYWGQGTQVTVSS | high polyreactivity |
| QVQLVESGGGLVQAGGSLRLSCAASGRTFWSYAMGWYRQAPGKEREFVAAISRRGGITYYADSVKGRFTISRDNAKNTVYLQMNSLKPEDTAVYYCAALPASVRRPGWHDYWGQGTQVTVSS | high polyreactivity |
| QVQLVESGGGLVQAGGSLRLSCAASGRTFWTNTMGWYRQAPGNEREFVAAITFGDGSTSYADSVKGRFTISRDNAKNTVYLQMNCLIAEVTAVYYCAKRWRRRFVDVWSLYDYWGQGTQVTVSS | low polyreactivity |
| QVQLVESGGGLVQAGGSLRLSCAASGRTFWWNAMGWYRQAPGKERELVAVISYSGGSTYYADSVKGRFTISRDNAKNTVYLQMNSLKPEDTAVYYCAAEAYTYWDTIYDYLGQGTQVTVSS | high polyreactivity |
| QVQLVESGGGLVQAGGSLRLSCAASGRTFWYYAMGWYRQAPGKEREFVAAISWSGGSTYYADSVKGRFTISRDNAKNTVYLQMNSLKPEDTAVYYCAADRYDSSQFYYWGQGTQVTVSS | low polyreactivity |
| QVQLVESGGGLVQAGGSLRLSCAASGRTFWYYAMGWYRQAPGKERELVAAITSGGSTNYADSVKGRFTISRDNAKNTVYLQMNSLKPEDTAVYYCAVDGLGGREGYWGQGTQVTVSS | high polyreactivity |
| QVQLVESGGGLVQAGGSLRLSCAASGRTFWYYAMGWYRQSPGKERELVAVITSGSSTYYADSVKGRFTISRDNAKNTVYLQMNSLKPEDTAVYYCAVGRTYRRYSAASYNYWGQGTQVTVSS | high polyreactivity |
| QVQLVESGGGLVQAGGSLRLSCAASGRTFWYYARGWYRQAPGKERELVAYADSVKGRFTISRDNAKNTVYLQMNSLKQEDTAVYYCAVGPVVWFSSSLYYTDYYYWGQGTQVTVSS | low polyreactivity |
| QVQLVESGGGLVQAGGSLRLSCAASGRTFWYYGMGWYRQAPGKERELVAAIRGSGGSTYYADSVKGRFTISRDNAKNTVYLQMNSLKPEDTAVYYCAKRSYIRPKYTYEYWGQGTQVTVSS | high polyreactivity |
| QVQLVESGGGLVQAGGSLRLSCAASGRTFWYYGMGWYRQAPGKERELVAAISRSGGRTSYADSVKGRFTISRDNAKNTVYLQMNSLKPEDTAVYYCATDGYYRYGYWGQGTQVTVAS | high polyreactivity |
| QVQLVESGGGLVQAGGSLRLSCAASGRTFWYYTMGWYRQAPGKEREFVAAISYSAGNTYYADSVKGRFTISRDNAKNTVYLQMNSLKPEDTAVYYCAVQRGYRSNAYDYWGQGTQVTVSS | high polyreactivity |
